System: Escherichia coli TOP10
Test: shrunken log2 fold change of peptide-encoding DNA abundance (4.5 h post-induction vs induction); higher = less antimicrobial activity (less host growth inhibition)
Settings: time post-induction: 4.5 h; library: site-saturation at positions 5, 18, 19, 20
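Note: peptides expressed intracellularly from a pBAD plasmid library in pooled LB shake-flask culture, induced with 0.3% L-arabinose, DNA abundance read by NGS, three biological replicates, DESeq2 with apeglm shrinkage.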

Sequence	shrunken log2 fold change
RRIRNRPPRLPRPRPRPGWQPRP	0.116
RRIRPRPPRLPRPRPRPSHAPRP	-0.166
RRIRKRPPRLPRPRPRPFRCPRP	-0.142
RRIRIRPPRLPRPRPRPDDRPRP	0.0115
RRIRMRPPRLPRPRPRPWATPRP	0.194
RRIRCRPPRLPRPRPRPHMFPRP	-0.348
RRIRSRPPRLPRPRPRPSRQPRP	-0.447
RRIRSRPPRLPRPRPRPNSSPRP	-0.31
RRIRPRPPRLPRPRPRPFKAPRP	-0.0573
RRIRIRPPRLPRPRPRPMQCPRP	-0.235
RRIRHRPPRLPRPRPRPSMEPRP	-0.424
RRIRMRPPRLPRPRPRPIWAPRP	0.114
RRIRDRPPRLPRPRPRPDVDPRP	0.0482
RRIRLRPPRLPRPRPRPKVQPRP	0.22
RRIRRRPPRLPRPRPRPYTCPRP	0.0906
RRIRFRPPRLPRPRPRPLHYPRP	-0.299
RRIRHRPPRLPRPRPRPTDDPRP	0.0853
RRIRHRPPRLPRPRPRPCEIPRP	-0.171
RRIRTRPPRLPRPRPRPCNIPRP	0.048
RRIRTRPPRLPRPRPRPTSCPRP	0.104
RRIRTRPPRLPRPRPRPFYVPRP	-0.45
RRIRVRPPRLPRPRPRPLWAPRP	0.081
RRIRQRPPRLPRPRPRPGCEPRP	0.0109
RRIRFRPPRLPRPRPRPGDLPRP	-0.23
RRIRCRPPRLPRPRPRPMNPPRP	-0.24

Sequence	shrunken log2 fold change
RRIRYRPPRLPRPRPRPRWRPRP	0.585
RRIRGRPPRLPRPRPRPGYAPRP	0.222
RRIRKRPPRLPRPRPRPQVEPRP	0.248
RRIRIRPPRLPRPRPRPLIHPRP	-0.556
RRIRIRPPRLPRPRPRPYFDPRP	-0.711
RRIRTRPPRLPRPRPRPRGCPRP	0.261
RRIRKRPPRLPRPRPRPKSNPRP	0.112
RRIRTRPPRLPRPRPRPYYTPRP	-0.336
RRIRNRPPRLPRPRPRPIVAPRP	-0.367
RRIRGRPPRLPRPRPRPQRDPRP	0.419
RRIRPRPPRLPRPRPRPTVCPRP	0.149
RRIRPRPPRLPRPRPRPMFDPRP	-0.231
RRIRDRPPRLPRPRPRPHRFPRP	0.0062
RRIRHRPPRLPRPRPRPYKSPRP	-0.00494
RRIRYRPPRLPRPRPRPSCHPRP	-0.0195
RRIRLRPPRLPRPRPRPCNEPRP	-0.0438
RRIRIRPPRLPRPRPRPYNGPRP	-0.0564
RRIRSRPPRLPRPRPRPGAHPRP	0.0286
RRIRKRPPRLPRPRPRPDFVPRP	0.0472
RRIRERPPRLPRPRPRPQCAPRP	0.0306
RRIRRRPPRLPRPRPRPFDMPRP	-0.0228
RRIRERPPRLPRPRPRPWNLPRP	-0.00195
RRIRDRPPRLPRPRPRPVDTPRP	-0.0119
RRIRSRPPRLPRPRPRPGPGPRP	0.599
RRIRIRPPRLPRPRPRPAQRPRP	0.0422

Sequence	shrunken log2 fold change
RRIRLRPPRLPRPRPRPIEEPRP	0.0311
RRIRMRPPRLPRPRPRPFYAPRP	-0.47
RRIRERPPRLPRPRPRPLGIPRP	-0.0554
RRIRIRPPRLPRPRPRPLMCPRP	-0.164
RRIRARPPRLPRPRPRPRNGPRP	0.566
RRIRSRPPRLPRPRPRPSLWPRP	0.122
RRIRTRPPRLPRPRPRPSYDPRP	-0.495
RRIRPRPPRLPRPRPRPTIPPRP	-0.361
RRIRERPPRLPRPRPRPLFYPRP	-0.513
RRIRYRPPRLPRPRPRPYKNPRP	-1.42
RRIRQRPPRLPRPRPRPPGLPRP	0.127
RRIRMRPPRLPRPRPRPQGDPRP	-0.477
RRIRYRPPRLPRPRPRPWWSPRP	-0.0117
RRIRDRPPRLPRPRPRPCHTPRP	-0.234
RRIRLRPPRLPRPRPRPSRMPRP	-0.241
RRIRARPPRLPRPRPRPIKHPRP	-0.0409
RRIRTRPPRLPRPRPRPVHQPRP	-0.022
RRIRIRPPRLPRPRPRPKKAPRP	-0.209
RRIRDRPPRLPRPRPRPSFLPRP	-0.197
RRIRSRPPRLPRPRPRPITFPRP	-0.716
RRIRQRPPRLPRPRPRPECQPRP	-0.0746
RRIRGRPPRLPRPRPRPGKGPRP	0.394
RRIRDRPPRLPRPRPRPMNEPRP	0.202
RRIRERPPRLPRPRPRPYMTPRP	-0.124
RRIRWRPPRLPRPRPRPQNFPRP	0.0414

— the supplement of paper PMC9112550, “Optimization of the antimicrobial peptide Bac7 by deep mutational scanning” (BMC Biology, 2022)
